Experimental data as given in patent publication US20240026407A1, “MODIFICATION OF SAPONINS” (GLAXOSMITHKLINE BIOLOGICALS SA, priority 2020, published 2024).

Tests used:
[1] = Example 10: derhamnosylation of saponins in crude bark extract (50%) using WT and engineered rhamnosidases R1 to R5; assay type: biochemical, Quillaja saponaria; conditions: 50% CBE, 35 degC; for % Right Peak: starting CBE 26; for % Left Peak: starting CBE 30; for % Middle Peak: starting CBE 44
Procedure: Lyophilised powders from clarified cell lysate expressing glucosidases (from Example 8 WT glucosidase and engineered glucosidase polypeptides G1 to G5) and rhamnosidases (from Example 9 WT rhamnosidase and engineered rhamnosidase polypeptides R1 to R5) were dissolved in 200 mM sodium acetate aqueous solution at pH 5.8 to prepare the enzyme solutions at 4 fold the final reaction concentration as shown in Tables 19 and 20.
Each rhamnosidase solution was combined with an equal volume of 200 mM sodium acetate aqueous solution at pH 5.8 and separately with an equal volume of 200 mM sodium acetate aqueous solution at pH 5.8 containing 2 mg/ml glucosidase G5. This is a sufficient loading of glucosidase to effect complete hydrolysis of the relevant glucose moiety within 4 hours.
CBE was adjusted to pH of 6.0 to 6.2 with 2M sodium hydroxide and an equal volume added to the enzyme solution to prepare the reaction mix (i.e. 50% CBE concentration in reaction mix) and the concentration of glucosidase and/or rhamnosidase is shown in Tables 19 and 20. The reaction mix was heated to 35 degC for the time indicated in Tables 19 and 20, after which the reaction was quenched by addition of an equal volume of MeCN containing 2% acetic acid and shaken at room temperature for 10 mins prior to centrifugation (10 min, 4 degC) to remove particulates. Samples were analysed by UV HPLC using method of Experiment 4-4.
The change in composition of the Left, Middle and Right peaks is shown in Tables 19 and 20. The composition changes by the action of the enzymes depending on the presence or absence of the partner enzyme. The extent of reaction is proportional to the enzyme concentration and the reaction time under these conditions. The tables show data for enzyme concentrations and the reaction times providing for equivalent extents of reaction. The improvement resulting from the mutations introduced for each variant is equal to the fold change in enzyme concentration×time (i.e. fold improvement=(enzyme concentration×time) for preceding variant÷(enzyme concentration×time) for later variant). A cumulative fold improvement over the original enzyme variant is calculated by the product of the individual fold improvements.

[2] = Example 9: screening of rhamnosidase variants for derhamnosylation of saponins in crude bark extract; assay type: biochemical, Quillaja saponaria; conditions: R5 round: 35 deg C, 18 h, lysate 0.0625% v/v, CBE 75% v/v, 100 mM Sodium acetate pH 5.8
Procedure: Libraries of genetic variants encoding mutations in the wild type Kribbella flavida rhamnosidase (SEQ ID No. 1017) were prepared using molecular biology techniques, enzymes were prepared linked to a C-terminally located His-tag. Single monoclonal colonies were grown in 400 ul of expression medium and protein expressed. Cell pellets were lysed in 200 ul of the relevant buffer (Table 17).
Lysate was diluted appropriately in the relevant buffer to allow a lysate loading of the indicated % loading (1% loading corresponds to use of 2 ul original lysate in a 200 ul reaction).
Crude bark extract (CBE) obtained by aqueous extraction of Quillaja saponaria and containing at least 2.80 mg/ml QS-21 (by HPLC-UV) was adjusted to pH 6 by dropwise addition of 2M NaOH with stirring. The relevant concentration of the relevant glucosidase was added. The appropriate relative volume of pH 6 CBE (160 ul (for 80%) or 150 ul (for 75%)) was added to each well of the reaction plate. The reaction plate was sealed and incubated at the relevant temperature and time.
The reaction plate was quenched by adding 200 uL of MeCN (2% AcOH, 1 mg/mL hexanophenone) to each well of the plates. The quenched reaction plate was re-sealed and incubated at 20 deg C. with shaking for 10 min. The reaction plate was then centrifuged (10 min, 4 degC).
200 uL was transferred from each well of the quenched plate to the corresponding wells of a fresh 96 well plate and sealed. The plate was analysed by UV HPLC with the method described in Example 4.
Three key peaks of interest are apparent using this chromatography: Left Peak (retention time approximately 2.30-2.35 min) comprising mainly QS-17 family components; Middle Peak (retention time approximately 2.37-2.42 min) comprising mainly QS-18 family components and desglucosyl-QS-17 family components; and Right Peak (retention time approximately 2.44-2.50 min) comprising mainly QS-21 family components. Peak identity was supported by MS/MS.
Enzyme activity is calculated as the % conversion of the Left Peak present in the crude bark extract: […]

[3] = rhamnosidase 0.16 mg/ml, no glucosidase, 7 h
[4] = rhamnosidase 0.31 mg/ml + glucosidase G5 0.5 mg/ml, 4 h

Cumulative Fold improvement in primary enzyme loading × time [1, 3]: 31
Fold improvement in primary enzyme loading × time [1, 3]: 1.9
Cumulative Fold improvement in primary enzyme loading × time [1, 4]: 27
Fold improvement in primary enzyme loading × time [1, 4]: 1.7
Right Peak % ([2]; negative control 26.23): 26.93%
Left Peak % ([2]; negative control 28.76): 26.59%
Middle Peak % ([2]; negative control 45.00): 46.48%
B1: Variant R5: engineered rhamnosidase polypeptide, variant of Kribbella flavida rhamnosidase SEQ ID No. 1017 (protein)
chain: MSFPAAPARLRFEHRTDPGPVLGIGTATPRLSWQVPTAPDDYRQAGYEVEIARGDAAPEQYTVDSADQVLVPWPGTPLAARESATVRVRVRGDGDWSQWSDPATVEAGLLSADDWTARFVSPRENAGHEAPAPLIGGVIDLPPDIAQARLYATAHGIYEPTLNGTRVGDEQLAPGWTAYEQRLRYQTYDVTDLVAPGENRLELLVGNGWYRGRMSFHDGHSLYGDRLAVLAQLEVTTATGEVKVLASDGTWTTRETNVLADDLYDGQHVDLRRTLGEPGPVDVLDADLSLLVAPDGPPVRVTDVLPAKAVTTSPAGKTLVDFGQNVVGRLRLRVRGGAAGDEIVLRHAEVLEDGELCVRPLRTAKATDSFVLAGPDEVTLEPTLTFHGFRYAEITGVPDLRAEDVEAVVVGSDLRRTGWFESSHPLLDRFHENVVWGMRGNFLDVPTDCPQRDERLGWTGDIQVFSPTASFLFDTAGFLTNWLADLIAEQHKDGSVPFVVPDVLRQPSPATAAWGDAATIVPWVLYERTGDAGLLARQLPSMRAWVDRMAGLAGDDLLWVGGFQFGDWLDPTAPPDDPFRAKADPDVLATAHLARSAEVVALAAEVVGAGELAREYAELAARVRQAFAAEYTTASGRVLSDAATNYALALQWALLPTEAQRKRAGERLADLVRTAGFRISTGFVGTPLMCDALADSGHPDLAYRLLLETGCPSWLYAVTMDATTVWERWDSMLPDGSINPGQMTSFNHYALGAVADWMHRRVAGLAPGDPGYRRIVVDPLFTAHLTKASARHLTPYGEAAVAWSRSGGRVRLEVTVPVGARARVAVPGESAPVEVGHGTHEWTADDVYGETPPLPADATIRQLIDHEPSWTTLAAAATRTGIVADDAELAGRLERYLDHPATELVDAVSPRGFSPSAEALHAELDSVLGR
modifications: Seq ID No. 1017 with mutations A143P, L214M, G215S, G218D, K219G, G357C, G508S, G634A, A690C, Q921H
time to complete hydrolysis of the relevant rhamnose moiety ([1]; 2 mg/ml rhamnosidase R5 solution (before mixing with glucosidase solution and CBE)): ≤ 4 h
cumulative fold improvement over WT rhamnosidase ([1]; from enzyme concentration x time for equivalent extent of reaction): approximately 30 fold
% change in Left Peak [1, 3]: −45%
% change in Middle Peak [1, 3]: 27%
% change in Right Peak [1, 3]: 106%
% Right Peak [1, 3]: 28%
% Left Peak [1, 3]: 17%
% Middle Peak [1, 3]: 56%
% change in Left Peak [1, 4]: −34%
% change in Middle Peak [1, 4]: −93%
% change in Right Peak [1, 4]: 296%
% Right Peak [1, 4]: 77%
% Left Peak [1, 4]: 20%
% Middle Peak [1, 4]: 3%
% conversion (Right peak/Left Peak) (−neg control) [2]: 2.62%
Cumulative FIOP from WT ([2]; estimate): 28.7
% conversion (Right peak/Left Peak) ([2]; negative control 47.70): 50.32%
FIOP (% area increase variant/pos control) ([2]; positive control R4): 1.3
